Assay results reported in the DeepSol protein solubility set.

Assay: soluble on expression in E. coli; label from the status in PepcDB or PDB records

Soluble on expression in E. coli, not soluble:
MGSDKIHHHHHHMKLIINADDFGFTRAINYGIIDAHNLGVLTSTTLMVTMPAFEHAVDLSKKTPTLGIGLHLNLTLGKPLTNGATLVNEDGELIKPKFTTPEYPYNEEEVYQEFKAQYHRFTEFMKKKPSHLDSHLFSTDIYPVVTSAAKRLAEEIGIPLRNHDTKGFEHVEFMWEKPLEIPYGEYDNLDYIYDNAASILCYDYVEIMTHPGYLDTFILENSTFSTPRANELESLISPRMRQFLNENNVELISYHDIPKK, MGSDKIHHHHHHMKLLILGNHTCGNRGDSAILRGLLDAINILNPHTEVDVMSRYPVSSSWLLNRPVMGDPLFLQMTQHNSAAGVVGRIKKVLRRRYQHQVLLSRVTDTGKLRNIAIAQGFTDFVRLLSGYDAIIQVGGSFFVDLYGVPQFEHALCTFMAKKPLFMIGHSVGPFQDEQFNQLANYVFGHCDALILRESVSLDLMKRRNITTAKVEHGVDTAWLVDHHTEDFTASYAVQHWLDVAAQQKTVAITLRELAPFDKRLGTTQQAYEKAFAGVVNRILDEGYQVIALSTCTGIDSYNKDDRMVALNLRQHISDPARYHVVMDELNDLEMGKILGACELTVGTRLHSAIISMNFATPAIAINYEHKSAGIMQQLGLPEMAIDIRHLLDGSLQAMVADTLGQLPVLNARFNEAVSRERQTGMQMVQSVLERIGEVK, MGSDKIHHHHHHMKLNTIDYLAPDSAERFVESLRETGFGVLSNHPIQKQLVEDIYKEWYNFFQSEQKHDFLFKSETHDGFFPASISETAKGNNVKDIKEYYHVYPWGRIPDSLRANILAYYEHANTLAAELLSWIEKYTPADVAEKYSIPLPDMIAQSQQTLLRILHYPPMKGDEEMGAIRAAAHEDINLITILPAANEPGLQVKTKTGEWIDVPSDFGSIIINIGDMLQEASGGYFPSTSHRVINPEGTDKTKSRISLPLFLHPNPEVVLSERYTADSYLQERLRELGVI, MGSDKIHHHHHHMKLSPTAQPFLHLHNLFILHQKVLVVKPMKELFPGLKRFRAYLNTAGLGLMPLTVYQKVNEFLLDVINYEDGINAVEILDELYFNPMLKKAAKLMKTNPENITVSLQTTDGLKRILTSLTPKKGMKIVSFDLEFPTISAILKSYAKRHGLEVKVIGNKGGLYYMEDVERVIDDNTFAVVFSDVQWITGQRMPTKEIAGVAHEHGAWVIVDAVQSLGALEVYPEKMEVDALVAGGEKWLLNPNTGSGVMWISEELIEVSEPILGLLNTQPEVPWSEWWGDERKDVWDILPVRKDARKLDPGTPPYVSIVALDASLELINSVGIEKIEKHDMKLAKRVREYAYELGVTALGSSQITLLRLGVDYVKQREIVKNLEEKGIVVSLRGAKGIFGIRVSPHLYNTEDDIVTLFDELSKFF, MGSDKIHHHHHHMKLTILTDNRAAPGLTCEHGFAVLIETGGKRILFDTGQLTAIDANCRALGIDLSDIDIIVLSHGHYDHTGNLADVLRIADRATLYLHPSALIERYSIRNDKPKPIDMPETAKQAINGLPKERVVWVTEPTRLTDGAFLTGPVPRQTTFEDTGGPFFFDPDGKTPDPIEDDLSLWIEKPEGLIVLAGCCHAGIVNTLDYIESITGQKRIATLIGGMHLSAASPERLNRTVASLANRDISRLIACHCTGQAAVERFSKELPYPVEAGYAGMVVESANE, MGSDKIHHHHHHMKMETGKLLMELSNLDGPSGYETNVVSYIKSVIEPFVDEAKTTRHGSLIGYKKGKGIGKLAFFAHVDEIGFVVSKVEGQFARLEPVGGVDPKVVYASKVRIYTKNGIERGVIGMLAPHLQDSESRKKVLTYDEIFVDLSLCERDVRVGDIAVIDQTAFETNGKVVGKALDNRASCGVLVKVLEFLKRYDHPWDVYVVFSVQEETGCLGALTGAYEINPDAAIVMDVTFASEPPFSDHIELGKGPVIGLGPVVDRNLVQKIIEIAKKHNVSLQEEAVGGRSGTETDFVQLVRNGVRTSLISIPLKYMHTPVEMVDPRDVEELARLLSLVAVELEV, MGSDKIHHHHHHMKNKVGIMYDNISGNTGDVAIGISLRKIMKELKVDFDEILLNNIDVLKYNTVIIGGGHLLRENSDFFYDKFKLRGPNILNSVGVVGNPNDLQYLEEYKYVTFRSEGDRKKAGYLNKKSSVVPCTTMLLDDLQDFPIHIKRPAIGVHLIPNIFSKEEEGLFVKWASKLPYTIYFIPITHYNYDYIYMSKLSQRISNSRVLPIMKPLEIFTFIGKLDYLITCSLHGSIFSYIHNVPFILMEQEKSRFFLEDRGLQGYLFSNLKEIIGLTEKVINNPLDYSNLIVKDKKILEEHVENIKQIVPNNSTYILSKECTESDEITQLNLQNGILQINLSKLTYELEAYKKEIKGINFRLKDEESKHMYYKKELKKIYRSRGWKALKKFYSLKDFISKKINGA, MGSDKIHHHHHHMKNRFLIICTVLFLSSCLAYGQEQASVTNDFSENKQGCIQHPWQGKKVGYIGDSITDPNCYGDNIKKYWDFLKEWLGITPFVYGISGRQWDDVPRQAEKLKKEHGGEVDAILVFMGTNDYNSSVPIGEWFTEQEEQVLSAHGEMKKMVTRKKRTPVMTQDTYRGRINIGITQLKKLFPDKQIVLLTPLHRSLANFGDKNVQPDESYQNGCGEYIDAYVQAIKEAGNIWGIPVIDFNAVTGMNPMVEEQLIYFYDAGYDRLHPDTKGQERMARTLMYQLLALPVAF, MGSDKIHHHHHHMKPLADRIRPENFNEVFGQKHIIGEGKILDRILKSSLVPNMIFYGPPGTGKTTVANIIAKKTNKAFYKLNATTASVKDVREITDSTNTLMGRNGVLLYLDEIQNFNKKQQQSLLEFMENGSITLIASTTENPYFYVYNAILSRSTIFEFKPLESDELMKAVNRAVELIKDELKTTEIIITEDAKKYAVGVSSGDVRKTLNSIEIAVYSTKPNEEGNIFIDLETMKECTQKNVLNFDKDGDNHYDILSAFQKSIRGSDADAAVLYLAMLIKGGDLKSICRRLLVIAAEDIGLAYPQAISIVKACTDSALELGFPEARIPLAEAVILLATSPKSNSAITAVDSALRDLDTINVGSIPDYLRDGHYEGAKKLGRMQDYKYPHSYENNYVKQKYLPSNLENRRYYEYGKNKIEEKCREYWERIKY, MGSDKIHHHHHHMKPLPAQAIWFTAPHTVSIREEIAPPPAYGDVRIAAIASLISHGTERLVYRGEVDPTLALDLPTLQGSFAFPIKYGYAIAGRVIDIGPGVEQFQIGDPVAALHPHQTIFTLPAHLVKRLPDTLDPALGGFYANVETALTICHDAAPRLGETVVVLGQGVVGLLVTQLLQRTGAQVIAVEPDAHRRALATQFGATTLAQADPATIAELTDGRGADIVVEVSGSPAALQQAIELTATEGLVVVASWYGQKPAPLILGGHFHRGRVRLRSSQVGRLAPETLPRWDYARRSATVMNLLPRLCLNELISHRIPFVQAAAAYDLLDQAPPGLVQVMLTYADYAPQT, MGSDKIHHHHHHMKQDTIHINGLSIGYHSKSSTKLVAKGIHSTIYSGELTCLLGANGVGKSTLLRTLSAFQPKLDGEILVLGKDIDTYSDKELSTTIGVVLTDKCEIRNMLVRELVGMGRSPYTGFWGKLSKDDKRIVEESIALVRIEELASRMVHTLSDGERQKVMIAKALAQETPVIYLDEPTAFLDFPSKVEIMQLLHHLTRKTNKTIFMSTHDLELALQISDKIWLMDKANGISTGTPEDLALSGHLSNFFARKGIVFDKDTGLFRIDNQFSRQIRLVGHGQKYAMVRKGLQRNGILANREVESNIWIETGDLKTTHFIIHETSGGTYITQTIEELLAYFDTEKS, MGSDKIHHHHHHMKQLGLGLNLSTKKTRKREFLEDMERVVPWAVLVQIVAPHYPKAKTGRPPFGIETMLRIHYLQQWFGLSDPAMEEALHDVPLYREFAKLDSVTARLPDETTILRFRHLLERHNLAVDMLRVVNDLLQHKGLMMRTGTAVDATLISAPSSTKNAEGERDPEMKQTRKGNNWYFGMKAHIGVDAQSGLVHTVATTGANVNDLNMAGALLHGDEEAAFGDAGYQGVHKRPEAKGPTWHVAMRPGLRRKLNPFIEPDFIAERIEKMKASIRAKVEHPFRVIKRQFGFTKVRYRGLKKNTAQIVTLFALSNLWMARRQLIGARG
